Measurements from article doi:10.1101/2024.11.10.622873 (bioRxiv, 2024).
Read-outs that look alike come from different tables or passages of the source.

B1: COP-1, synthetic antibody fragment (sFab), with C-terminal histidine tag (Fab, V domains shown)
VH: EVQLVESGGGLVQPGGSLRLSCAASGFNFSSSYIHWVRQAPGKGLEWVASISSSSGSTSYADSVKGRFTISADTSKNTAYLQMNSLRAEDTAVYYCARWFHPWWWWEYLFRGAIDYWGQGTLVTVSS
VL: DIQMTQSPSSLSASVGDRVTITCRASQSVSSAVAWYQQKPGKAPKLLIYSASSLYSGVPSRFSGSRSGTDFTLTISSLQPEDFATYYCQQSSSSLITFGQGTKVEIK

Key:
Test in all cases: BLI
[1] = target: COP-1, synthetic antibody fragment (sFab), with C-terminal histidine tag
[2] = target: COP-1, synthetic antibody fragment (sFab), with C-terminal histidine tag; remark: listed apart in the source
[3] = target: human claudin-18 splice variant 18.2 (human, UniProt P56856-2)
[4] = target: human claudin-17 (human, UniProt P56750)
[5] = target: human claudin-3 (human, UniProt O15551)
[6] = target: human claudin-9 (human, UniProt O95484)
[7] = target: human junctional adhesion molecule-A (Homo sapiens, UniProt Q9Y624)
[8] = target: human claudin-6 (human, UniProt P56747)
[9] = target: murine claudin-15 (mouse, UniProt Q9Z0S5)
[10] = target: human claudin-1 (human, UniProt O95832)
[11] = target: human claudin-18 splice variant 18.1 (human, UniProt P56856)
[12] = target: C-terminal domain of Clostridium perfringens enterotoxin, in solution (Clostridium perfringens, UniProt P01558)
[13] = target: human occludin (Homo sapiens, UniProt Q16625)
[14] = target: human claudin-5 (human, UniProt O00501)
[15] = target: human claudin-19 (human, UniProt Q8N6F1)
Chain of human claudin-19 (Q8N6F1 whole entry): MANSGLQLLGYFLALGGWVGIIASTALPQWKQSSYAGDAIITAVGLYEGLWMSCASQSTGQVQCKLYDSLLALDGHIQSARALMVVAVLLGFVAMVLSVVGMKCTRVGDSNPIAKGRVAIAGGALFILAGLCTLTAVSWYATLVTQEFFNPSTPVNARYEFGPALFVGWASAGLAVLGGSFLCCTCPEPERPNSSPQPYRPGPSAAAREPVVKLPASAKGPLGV

Chain of human claudin-9 (O95484 whole entry): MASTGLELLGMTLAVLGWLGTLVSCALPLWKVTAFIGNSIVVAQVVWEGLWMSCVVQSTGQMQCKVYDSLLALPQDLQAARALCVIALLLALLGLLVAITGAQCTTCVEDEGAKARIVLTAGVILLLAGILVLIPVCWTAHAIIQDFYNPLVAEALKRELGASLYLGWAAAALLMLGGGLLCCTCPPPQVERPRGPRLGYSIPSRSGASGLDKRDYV
Chain of murine claudin-15 (Q9Z0S5 whole entry): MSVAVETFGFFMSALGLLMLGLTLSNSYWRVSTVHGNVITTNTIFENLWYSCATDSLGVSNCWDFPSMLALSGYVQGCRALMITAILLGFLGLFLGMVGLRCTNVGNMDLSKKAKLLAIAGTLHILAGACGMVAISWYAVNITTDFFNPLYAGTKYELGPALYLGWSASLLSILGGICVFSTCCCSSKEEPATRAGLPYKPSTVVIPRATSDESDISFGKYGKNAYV
Chain of C-terminal domain of Clostridium perfringens enterotoxin, in solution (P01558 198-319): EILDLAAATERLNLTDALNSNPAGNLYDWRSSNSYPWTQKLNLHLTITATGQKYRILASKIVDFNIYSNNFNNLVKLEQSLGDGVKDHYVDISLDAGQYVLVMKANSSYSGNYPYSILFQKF
Chain of human claudin-6 (P56747 whole entry): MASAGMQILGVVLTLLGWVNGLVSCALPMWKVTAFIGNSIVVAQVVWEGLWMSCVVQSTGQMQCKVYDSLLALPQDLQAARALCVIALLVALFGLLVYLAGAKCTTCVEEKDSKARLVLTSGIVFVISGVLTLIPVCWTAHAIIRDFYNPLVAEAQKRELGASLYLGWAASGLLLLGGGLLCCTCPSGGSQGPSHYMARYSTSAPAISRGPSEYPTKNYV
Chain of human claudin-5 (O00501 whole entry): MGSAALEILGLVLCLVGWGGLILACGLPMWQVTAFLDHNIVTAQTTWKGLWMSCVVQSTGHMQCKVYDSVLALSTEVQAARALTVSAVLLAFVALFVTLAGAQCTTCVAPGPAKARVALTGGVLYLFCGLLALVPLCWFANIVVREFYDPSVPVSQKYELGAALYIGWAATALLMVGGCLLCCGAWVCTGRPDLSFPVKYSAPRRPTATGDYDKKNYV
Chain of human claudin-3 (O15551 whole entry): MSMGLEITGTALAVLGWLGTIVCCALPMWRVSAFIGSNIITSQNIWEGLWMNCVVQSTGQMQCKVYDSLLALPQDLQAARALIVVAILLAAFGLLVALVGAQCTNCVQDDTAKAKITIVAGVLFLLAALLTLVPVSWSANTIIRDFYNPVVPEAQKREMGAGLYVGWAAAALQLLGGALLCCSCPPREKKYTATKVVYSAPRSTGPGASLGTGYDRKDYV
Chain of human claudin-17 (P56750 whole entry): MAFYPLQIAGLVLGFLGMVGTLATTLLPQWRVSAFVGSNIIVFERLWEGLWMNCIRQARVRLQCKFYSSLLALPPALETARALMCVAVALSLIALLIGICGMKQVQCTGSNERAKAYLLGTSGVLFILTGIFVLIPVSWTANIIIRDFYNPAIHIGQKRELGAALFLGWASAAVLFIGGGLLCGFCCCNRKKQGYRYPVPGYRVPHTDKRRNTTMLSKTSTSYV
Chain of human claudin-1 (O95832 whole entry, canonical isoform): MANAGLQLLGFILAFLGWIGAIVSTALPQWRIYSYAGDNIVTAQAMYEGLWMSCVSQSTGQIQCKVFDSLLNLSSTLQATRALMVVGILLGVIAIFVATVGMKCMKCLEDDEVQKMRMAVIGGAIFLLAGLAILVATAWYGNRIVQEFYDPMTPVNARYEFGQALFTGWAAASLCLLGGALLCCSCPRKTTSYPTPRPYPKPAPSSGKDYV

Row | Molecule | Kd [1] | Kd [2] | t1/2 of the complex [2] | Kd [3] | Kd [4] | Kd [5] | Kd [6] | binding result [7] | Kd [8] | Kd [9] | Kd [10] | Kd [11] | binding result [12] | binding result [13] | Kd [14] | Kd [15]
1 | human claudin-4 (from UniProt O14493) (natural protein) | 70.6 nM | 106 nM | 30 min | – | – | – | – | – | – | – | – | – | – | – | – | –
2 | B1 | – | – | – | 66.4 nM | 80.2 nM | 57.9 nM | 66 nM | no binding (tested: 500 nM) | 59.5 nM | 59 nM | 61.3 nM | 92.4 nM | no binding | no binding (tested: 500 nM) | 75.8 nM | 62.2 nM
